Laboratory results from patent US20160310607A1, “CELL TRANSPORT” (CUPID PEPTIDE COMPANY LIMITED, priority 2013, published 2016).

Key:
PTEN [1] = assay: Inositol phospholipid levels in starving Dictyostelium cells (solvent extraction, thin layer chromatography); assay type: cell-based, Dictyostelium discoideum; conditions: 10 micromolar, 1 hour, starving wild-type Dictyostelium
Experimental: FIG. 9. The levels of the 4 inositol phospholipids (PI, PIP, PIP2 and PIP3) in wild-type Dictyostelium cells undergoing starvation were measured by solvent extraction of cell cultures and analysis using thin layer chromatography. The effect of Cupid B-PTEN peptide treatment (10 micromolar, 1 hour) was calculated as a percentage change in the basal (untreated) levels.
The PTEN protein has a phospholipase enzymatic activity that functions to remove phosphate groups from inositol-based lipids and as such is involved with maintaining the balance between varieties of inositol phospholipids present at the cell surface. In wild-type cells undergoing starvation the inositol phospholipids with 3 and 4 phosphate groups (PIP2 and PIP3) are kept low, largely due to the action of PTEN.
We determined the effect of Cupid B-PTEN peptide on the inositol phospholipid levels in Dictyostelium cultures. Cupid B-PTEN peptide treated cells (10 micromolar, 1 hour) alters the basal levels of inositol phospholipids in Dictyostelium cells.

[2] = tested on: Dictyostelium discoideum amoeba cells; assay: Permeation of FITC-labelled peptides into cultured Dictyostelium cells (fluorescence microscopy); assay type: cell-based; conditions: FITC-labelled peptide, 20 micromolar, 1 hour
Experimental: Peptides were labelled with Fluorescein isothiocyanate (FITC) using a FITC labeling kit as per instructions (Pierce, UK). When added to cell cultures the labeled peptides were visualized using a fluorescent microscope by exciting the FITC with a 488 nm spectral line, argon-ion laser (Excitation wavelength of 494 nm and an Emission wavelength of 518 nm).
AX2 wild type Dictyostelium cells were grown on SM agar plates seeded with Aerobacter aerogenes bacteria (also known as Klebsiella aerogenes) as a food source.
Cupid A ([…]) and Cupid B ([…]) were chemically synthesized labelled with FITC at the amino terminal. The peptides were added to cultured eukaryotic cells of Dictyostelium discoideum amoeba for varying amounts of time up to 2 hours. Cells were then washed and prepared for examination under a fluorescent microscope (FIG. 1). The time courses of permeation were compared to the class 3 CPP, the Antennapedia peptide, pANT which was also labelled with FITC in chemical synthesis (FIG. 2).

PTEN [3] = assay: Protein phosphorylation response to cyclic AMP in starving Dictyostelium cultures (antibody detection on SDS gels); assay type: cell-based, Dictyostelium discoideum; conditions: pre-treated for 1 hour with 10 micromolar peptide
Source text: FIG. 10. In starving Dictyostelium cultures, several proteins undergo rapid phosphorylation/dephosphorylation events in response to an applied dose of cyclic AMP. The strength of this response is limited by PTEN enzyme activity. This response is visualised with antibody detection of these phosphoproteins on SDS gels prepared from extracted cultures at the time points indicated after the cAMP dose.
In starving Dictyostelium cultures, several proteins undergo rapid phosphorylation/dephosphorylation events in response to an applied dose of cyclic AMP. The strength of this initial phosphorylation response is limited by PTEN enzyme activity and is associated with changes in PIP2 and PIP3 inositol phospholipid levels.

PTEN [4] = assay: Streaming and aggregation of starved wild-type Dictyostelium cultures compared with the PTEN null mutant; assay type: cell-based, Dictyostelium discoideum; conditions: 10 micromolar, wild-type cells, visualised after 10 hours
Experimental: FIG. 8. Cupid can transport large molecule cargo into the cell. Starved Dictyostelium cultures were plated into petri dishes in starvation buffer and visualised after 10 hours. In untreated wild-type (WT) cultures (A), cells stream together into aggregation centres, co-ordinated by cell to cell signaling.
In Dictyostelium, a genetic mutant in which the PTEN gene is absent causes marked changes in phenotype.

B1: Cupid B-PTEN: Cupid B fused to a 167 amino acid region (C2 region, 186-352) of human PTEN, with 6x Histidine (protein)
chain: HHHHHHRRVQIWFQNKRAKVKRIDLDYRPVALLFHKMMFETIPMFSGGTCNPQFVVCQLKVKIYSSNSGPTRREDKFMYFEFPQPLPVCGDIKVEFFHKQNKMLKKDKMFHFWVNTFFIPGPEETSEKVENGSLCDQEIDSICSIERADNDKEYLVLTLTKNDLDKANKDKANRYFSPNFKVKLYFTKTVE
modifications: FITC label
notes: Cupid B fused to a 167 amino acid region (C2 region, 186-352) of human PTEN, with 6x Histidine
change of PIP2 level relative to untreated basal level (PTEN [1]): +75% | change of PIP3 level relative to untreated basal level (PTEN [1]): +150% | cell permeation (fluorescence microscopy) [2]: cell permeable | initial phosphorylation response to cyclic AMP versus untreated cultures (PTEN [3]): much stronger initial phosphorylation response | initial phosphorylation response to cyclic AMP versus untreated cultures (PTEN [3]; listed as Cupid-PTEN): much greater phosphorylation response | streaming/aggregation behaviour of starved wild-type Dictyostelium (PTEN [4]): exhibit the same distinctive behaviour as the PTEN-Null strain | streaming/aggregation behaviour of starved wild-type Dictyostelium (PTEN [4]; listed as Cupid-PTEN): cells failed to stream together or aggregate
